Source: patent US20230192839A1, “ANTIBODIES HAVING CONDITIONAL AFFINITY AND METHODS OF USE THEREOF” (PFIZER INC., priority 2017, published 2023)

Columns and labels:
Format in all cases: cell-based, human
[1] = test system: MV4-11 target cells (which express CD33); experiment: IL-2 and IFN-γ secretion by CD33-specific conditional CAR T cells after CAR or TCR stimulation; details: activation via anti-CD33 CAR by MV4-11 cells; 100 µM MTX; 24 hours; FIGS. 6A and 6C
Experimental: The example examines the levels secretion of the cytokines IL-2 and IFN-γ by conditional CAR T cells containing an anti-CD33 antibody having conditional affinity, after stimulation of the CAR T cell via either i) the CAR in the CAR T cell or ii) the TCR in the CAR T cell. In addition, these were examined in both the presence and absence of methotrexate (MTX).
The anti-CD33 clone used in this example was P02_D09. […] In addition, a tool T cell was prepared as described in Example 4, as were untransduced T cells.
(§1) The target cell line used in this assay was MV4-11, as described in Example 5.
Assays were carried out in 96-well plates by culturing 100,000 T cells with various other reagents (depending on the assay), for each of the different T cells described above. Each of the co-cultures contained either 100 µM MTX or 0 µM MTX. In both conditions, 1 mM leucovorin was supplemented to circumvent MTX toxicity. To stimulate the CAR T cells via the anti-CD33 CARs, 100,000 MV4-11 target cells (which express CD33) were included in the culture with the T cells. To stimulate the CAR T cells via the TCR, T cell Activation/Expansion Beads (Miltenyi) were included in the culture with the T cells (i.e. in the absence of target cells). […] The cytokines in the supernatant were measured using U-PLEX Th1/Th2 Combo plates (Meso-Scale Discovery; Rockville, MD) according to the manufacturer’s specifications.

[2] = test system: MV4-11 target cells; experiment: Proliferation of CD33-specific conditional CAR T cells after CAR or TCR stimulation, cell count by flow cytometry; details: 100 µM MTX vs no MTX, 7 days, FIG. 7
Experimental: The example examines the proliferative capabilities of conditional CAR T cells containing an anti-CD33 antibody having conditional affinity after stimulation of the CAR T cell via either the CAR T cell’s i) CAR or ii) TCR. In addition, these were examined in both the presence and absence of methotrexate (MTX).
The anti-CD33 clone used in this example was P02_D09. In addition, a tool T cell was prepared as described in Example 4, as were untransduced T cells. T cells from one PBMC donor were used for this experiment.
as §1
The assays were carried out in 96-well plates by culturing 100,000 T cells with various other reagents (depending on the assay), for each of the different T cells described above. In addition, each of the co-cultures contained either 100 µM MTX or 0 µM MTX. In both conditions, 1 mM leucovorin was supplemented to circumvent MTX toxicity. The T cells were stimulated by CAR or TCR as in Example 6. Cultures were maintained in a final volume of 100 ul of RPMI 1640 medium for 7 days at 37 C with 5% CO2. On day 7, cells were collected and counted via flow cytometry (BD LSR II) using 123Count eBeads (Thermo Fisher Scientific).

[3] = test system: MV4-11 cells; experiment: Flow cytometry analysis of MTX-dependent CAR T cell activation (CD69) and proliferation (CellTrace); details: 100 µM MTX vs 0 µM MTX, with target cells, FIG. 8
Experimental: The anti-CD33 clone used in this example was P02_D09. CAR T cells containing this clone were generated in duplicate from PBMC cells from two different human donors. The target cell line used in this assay was MV4-11, as described in Example 5.
To assess activation of the conditional CAR T cells described above, in vitro cytotoxicity assays were carried out in 24-well plates by co-culturing 250,000 CAR T cells, with or without 250,000 MV4-11 cells. In addition, each of the co-cultures contained either 100 µM MTX or 0 µM MTX. In all conditions, 1 mM leucovorin was supplemented to circumvent MTX toxicity. Cells were collected after 24 hours of co-culture, labeled with fluorophore-conjugated antibody to CD69 (Biolegend) and analyzed by flow cytometry (BD LSR II). Activation was quantified via detection of the early activation marker, CD69.
To assess proliferative ability of the CAR T cells described above, the cells were prelabelled with the fluorescent intracellular dye, CellTrace Deep Red (Invitrogen), before co-culturing as described immediately above for the CAR T cell activation assay. The co-cultures were incubated for 7 days at 37 C with 5% CO2. On day 7, cells were collected and analyzed via flow cytometry. Dilution of the CellTrace dye (leftward shift of peaks in the histogram) was interpreted as T cell proliferation.

[4] = test system: MV4-11 cells; experiment: Sequential rounds of in vitro cytotoxicity assays with changing MTX concentration (reversible inhibition); details: Round 0-1 no MTX, then 100 µM MTX at Round 1-2 and Round 2-3; FIGS. 9A and 9B
Experimental: The anti-CD33 clones tested in this example were: P03_A01, P07_C04, and P02_D09. In addition, a tool T cell was prepared as described in Example 4, as were untransduced T cells. Also, each of the different conditional CAR T cells described above was generated in triplicate from PBMC cells from three different human donors. The target cell line used in this assay was MV4-11; these cells were transduced to stably express GFP and firefly luciferase, as described in Example 5.
This experiment involved a series of in vitro cytotoxicity assays, in which co-cultures of T cells and MV4-11 target cells were incubated together for multiple rounds of sequential cytotoxicity assays, in which the MTX concentration changed at different rounds of the assays. In vitro cytotoxicity assays were carried out in 24-well plates by co-culturing 200,000 T cells with 200,000 MV4-11 cells, for each different T cells described above. In addition, each of the co-cultures contained either 100 µM MTX or 0 µM MTX at different times, as indicated by the schematics in FIGS. 9A and 9C. In both conditions, 1 mM leucovorin was supplemented to circumvent MTX toxicity. For each round of the assay, co-cultures were maintained in a final volume of 500 µl of RPMI 1640 medium at 37 C with 5% CO2 for 48 hours. At the end of each round, cells were spun down (250 × g, 10 minutes), supernatant was removed, and fresh media containing fresh MV4-11 cells, leucovorin, and optionally MTX were added according to the schematics shown in FIGS. 9A and 9C. Target cell killing was assessed and plotted as described in Example 4.
In comparing the different panels of FIGS. 9A-9D, note that the schematics shown in FIGS. 9A and 9C indicate the MTX concentration in the co-culture at the start of the assay for a given round, whereas the results from that assay are shown the next round number in FIGS. 9B and 9D, respectively. […]

B1: P02_D09: anti-CD33 clone with conditional affinity; VH SEQ ID NO: 35, VL SEQ ID NO: 36; also as scFv in CAR (antibody, V domains shown)
VH: QVQLVESGGGLVQAGGSLRLSCAASRRSSRSWAMHWVRQAPGKGLEWVAVISYDGRLKYYADSVKGRFTISRDNAEYLVYLQMNSLRAEDTAVYYCAAEEGDGGFFDYWGQGTLVTVSS
VL: QSVLTQPPSASGTPGQRVTISCSGSSSNIGSNYVNWYQQLPGTAPKLLIYRNNERPSGVPDRFSGSKSGTSASLAISGLRSEDEADYYCAAWDGSLSGRGVFGTGTKLTVL
modifications: Synthetic Antibody
notes: also as scFv in CAR
In the case of B1, the “IL-2 and IFN-γ production, CAR stimulation, presence of MTX” value [1] is reported as “reduced back to the level comparable to that of unstimulated T cells”, the “proliferative ability, CAR stimulation, presence of MTX” value ([2]; CAR stimulation (CD33)) is reported as “dramatically diminished” and the “proliferation, TCR stimulation, presence of MTX” value ([2]; TCR stimulation (CD3/CD28)) is reported as “not affected by MTX”. For the same molecule, the “activation (CD69) in the presence of MTX” value ([3]; 24 hours) was “dramatically reduced”, the “proliferation (CellTrace dilution) in the presence of MTX” value ([3]; 7 days) was “dramatically reduced” and the “target cell killing when MTX is added to active CAR T cells ("on" to "off")” value [4] was “quick inhibition rates”.
